Test results taken from US20250313620A1.

How the values were obtained:
[1] = target: PD-1 on in vitro activated primary human T cells (human) (UniProt Q15116); experiment: flow cytometry, PD-1 staining of activated T cells treated with IL-15 100 nM
[2] = target: PD-1 on in vitro activated primary human T cells (human) (UniProt Q15116); experiment: flow cytometry, PD-1 staining of activated T cells treated with RV1 precomplexed with IL-15, 100 nM
[3] = target: PD-1 on in vitro activated primary human T cells (human) (UniProt Q15116); experiment: flow cytometry, PD-1 staining of activated T cells treated with IL-15Rα-Fc precomplexed with IL-15, 10 nM
[4] = target: PD-1 on in vitro activated primary human T cells (human) (UniProt Q15116); experiment: flow cytometry, PD-1 staining of activated T cells treated with RV2 precomplexed with IL-15, 10 nM
[5] = target: PD-1 on in vitro activated primary human T cells (human) (UniProt Q15116); experiment: flow cytometry, PD-1 staining of activated T cells treated with IL-15 10 nM
[6] = target: PD-1 on in vitro activated primary human T cells (human) (UniProt Q15116); experiment: flow cytometry, PD-1 staining of activated T cells treated with IL-15 1 nM
[7] = target: PD-1 on in vitro activated primary human T cells (human) (UniProt Q15116); experiment: flow cytometry, PD-1 staining of activated T cells treated with RV2 precomplexed with IL-15, 1 nM
[8] = target: PD-1 on in vitro activated primary human T cells (human) (UniProt Q15116); experiment: flow cytometry, PD-1 staining of activated T cells, media only
[9] = target: PD-1 on in vitro activated primary human T cells (human) (UniProt Q15116); experiment: flow cytometry, PD-1 staining of activated T cells treated with IL-15Rα-Fc precomplexed with IL-15, 100 nM
[10] = target: PD-1 on in vitro activated primary human T cells (human) (UniProt Q15116); experiment: flow cytometry, PD-1 staining of activated T cells treated with RV1 precomplexed with IL-15, 1 nM
[11] = target: PD-1 on in vitro activated primary human T cells (human) (UniProt Q15116); experiment: flow cytometry, PD-1 staining of Ki-67 positive activated T cells, average over the non-PD-1-binding treatments
[12] = target: PD-1 on in vitro activated primary human T cells (human) (UniProt Q15116); experiment: flow cytometry, PD-1 staining of activated T cells treated with RV2 precomplexed with IL-15, 100 nM
[13] = target: PD-1 on in vitro activated primary human T cells (human) (UniProt Q15116); experiment: flow cytometry, PD-1 staining of activated T cells treated with RV1 precomplexed with IL-15, 10 nM
[14] = target: PD-1 on in vitro activated primary human T cells (human) (UniProt Q15116); experiment: flow cytometry, PD-1 staining of activated T cells treated with IL-15Rα-Fc precomplexed with IL-15, 1 nM

Chain of PD-1 on in vitro activated primary human T cells (human) (Q15116 25-288): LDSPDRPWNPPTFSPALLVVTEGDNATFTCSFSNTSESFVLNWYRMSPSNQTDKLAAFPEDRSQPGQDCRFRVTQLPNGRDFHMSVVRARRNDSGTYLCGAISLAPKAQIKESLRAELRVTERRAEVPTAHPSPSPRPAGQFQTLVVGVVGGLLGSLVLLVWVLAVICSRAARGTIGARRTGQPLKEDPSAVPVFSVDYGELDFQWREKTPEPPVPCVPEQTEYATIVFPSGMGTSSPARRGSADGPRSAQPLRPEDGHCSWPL

B1: PD-1 detection antibody (clone EH12.2H7) (antibody, from another filing, V domains shown)
VH: QVQLQQSGAELAKPGASVQMSCKASGYSFTSSWIHWVKQRPGQGLEWIGYIYPSTGFTEYNQKFKDKATLTADKSSSTAYMQLSSLTSEDSAVYYCARWRDSSGYHAMDYWGQGTSVTVSS
VL: DIVLTQSPASLTVSLGQRATISCRASQSVSTSGYSYMHWYQQKPGQPPKLLIKFGSNLESGIPARFSGSGSGTDFTLNIHPVEEEDTATYYCQHSWEIPYTFGGGTKLEIK
MFI of PD-1 in Ki-67 positive CD4+ T cells [1]: 6550 MFI
MFI of PD-1 in Ki-67 positive CD8+ T cells [1]: 3220 MFI
MFI of PD-1 in Ki-67 positive CD4+ T cells [2]: 4830 MFI
MFI of PD-1 in Ki-67 positive CD8+ T cells [2]: 2370 MFI
MFI of PD-1 in Ki-67 positive CD4+ T cells [3]: 4480 MFI
MFI of PD-1 in Ki-67 positive CD8+ T cells [3]: 2120 MFI
MFI of PD-1 in Ki-67 positive CD4+ T cells [4]: 5070 MFI
MFI of PD-1 in Ki-67 positive CD8+ T cells [4]: 2020 MFI
MFI of PD-1 in Ki-67 positive CD4+ T cells [5]: 6440 MFI
MFI of PD-1 in Ki-67 positive CD8+ T cells [5]: 3190 MFI
MFI of PD-1 in Ki-67 positive CD4+ T cells [6]: 4870 MFI
MFI of PD-1 in Ki-67 positive CD8+ T cells [6]: 2050 MFI
MFI of PD-1 in Ki-67 positive CD4+ T cells [7]: 4200 MFI
MFI of PD-1 in Ki-67 positive CD8+ T cells [7]: 1920 MFI
MFI of PD-1 in Ki-67 positive CD4+ T cells [8]: 4020 MFI
MFI of PD-1 in Ki-67 positive CD8+ T cells [8]: 2250 MFI
MFI of PD-1 in Ki-67 positive CD4+ T cells [9]: 4380 MFI
MFI of PD-1 in Ki-67 positive CD8+ T cells [9]: 2110 MFI
MFI of PD-1 in Ki-67 positive CD4+ T cells [10]: 4100 MFI
MFI of PD-1 in Ki-67 positive CD8+ T cells [10]: 1870 MFI
MFI of PD-1 staining, average, CD4+ cells [11]: 4830 MFI
MFI of PD-1 staining, average, CD8+ cells [11]: 2190 MFI
MFI of PD-1 in Ki-67 positive CD4+ T cells [12]: 5840 MFI
MFI of PD-1 in Ki-67 positive CD8+ T cells [12]: 2820 MFI
MFI of PD-1 in Ki-67 positive CD4+ T cells [13]: 4620 MFI
MFI of PD-1 in Ki-67 positive CD8+ T cells [13]: 1890 MFI
MFI of PD-1 in Ki-67 positive CD4+ T cells [14]: 4280 MFI
MFI of PD-1 in Ki-67 positive CD8+ T cells [14]: 1690 MFI
